From article PMC7439320 (Science Advances, 2020) come the findings set out here.

The data set concerns the molecule itself. Kind of data set: cryo-EM structure.

Several values for one entry are separate records, joined by “and”; a condition that tells them apart may be missing. Equal entries are not always repeated.

B1: Caenorhabditis elegans calcium homeostasis modulator protein CLHM-1 (CeCLHM-1) (natural protein)
chain: MTTSINSVVTVFQNVFTNHGSTLLNGILIATTVGGQSLVRKLTFSCPCAYPLNIYHSLVFMFGPTAALLLIGITVNSTTWKLAHGFFFRVRDTRHSWKTTCVSWIEVLIQSSVAPIAWLFVVFLDGGYYRCYRSHEFCLISDAILCKNSTILNSYASTSSFNKISDNGKYCPPCICVPNPTDASYLEAESQIYAWGLLLFSGVAAFLVITCNRMCDKYTLVQRQYVETYKNVETQKFDAVAKEHASQLAEHNARAFFGQKDWTKRDWDWVSGIPEVNNPLFARLRLIAAEKTQQTMYTPLQLWNDNKGYRIPQPDLQLTQIIVDETKED
Take B1: the “stoichiometry N” value worked out at 9.

B2: Oryzias latipes CALHM1 truncated at the C terminus (OlCALHM1EM) (domain or fragment)
chain: MDKFRMMFQFLQSNQESFMNGICGIMALASAQMYSSFEFSCPCMPEYNYTYGIGLLIIPPIWFFLLGFVLNNNVSVLAEEWKRPTGRRTKDPSVLRYMLCSITQRSLIAPAVWVSVTLMDGKSFLCAFSINLDIEKFGNASLVIGMTETEKLKFLARIPCKDLFEDNEVRVAATRYIKCISQACGWMFLLMMTFTAFLIRAIRPCFTQAAFLKTKYWSHYIDIERKMFDETCKEHAKSFAKVCIHQYFENISGEMQNFHRHQSKDTSDAEEEEKQRSDEDKLLGIKAQEDMNKVL
For B2, the “stoichiometry N” value was determined as 8.

B3: Homo sapiens calcium homeostasis modulator 2 (HsCALHM2) (natural protein)
chain: MAALIAENFRFLSLFFKSKDVMIFNGLVALGTVGSQELFSVVAFHCPCSPARNYLYGLAAIGVPALVLFIIGIILNNHTWNLVAECQHRRTKNCSAAPTFLLLSSILGRAAVAPVTWSVISLLRGEAYVCALSEFVDPSSLTAREEHFPSAHATEILARFPCKENPDNLSDFREEVSRRLRYESQLFGWLLIGVVAILVFLTKCLKHYCSPLSYRQEAYWAQYRANEDQLFQRTAEVHSRVLAANNVRRFFGFVALNKDDEELIANFPVEGTQPRPQWNAITGVYLYRENQGLPLYSRLHKWAQGLAGNGAAPDNVEMALLPS
On to B3, for which the “stoichiometry N” value amounted to 11.

B4: Chimeric channel of the TMD from OlCALHM1 and the CTD from HsCALHM2 (OlCALHM1c) (other)
chain: MDKFRMMFQFLQSNQESFMNGICGIMALASAQMYSSFEFSCPCMPEYNYTYGIGLLIIPPIWFFLLGFVLNNNVSVLAEEWKRPTGRRTKDPSVLRYMLCSITQRSLIAPAVWVSVTLMDGKSFLCAFSINLDIEKFGNASLVIGMTETEKLKFLARIPCKDLFEDNEVRVAATRYIKCISQACGWMFLLMMTFTAFLIRAIRPCFTQASYRQEAYWAQYRANEDQLFQRTAEVHSRVLAANNVRRFFGFVALNKDDEELIANFPVEGTQPRPQWNAITGVYLYRENQGLPLYSRLHKWAQGLAGNGAAPDNVEMALLPS
As for B4, the “stoichiometry N” value is 8 and 9.
